# Laboratory results reported in PMC10019796.
# pKd: −log10 of the molar value.
# Target: mtDsbC-SARS-CoV-2 RBD wild type fusion protein (SARS-CoV-2) (UniProt P0DTC2)
# Test: BLI; biotinylated mtDsbC-RBD (20 µg/mL) immobilised on streptavidin (SA) biosensors, Fabs as analytes at three nanomolar concentrations; Octet RED384, 30 °C, 1000 rpm, 1 × PBS Kinetics Buffer; 1:1 interaction model, global fit
substance,measurement,value
REGN10987 (L93Q) Fab,pKd,< 6.00
